# Data as given in patent publication US20210253733A1 (ONCORESPONSE, published 2021).
# Experiments:
# [1] = molecular target: T1, human CD163 expressed on human myeloid cells (M2c macrophages, M2 macrophages, in vitro MDSCs) (human, UniProt Q86VB7 42-1114); experiment: flow cytometry, AF647-conjugated AB102 on polarized M2c macrophages without siRNA
# T1 construct: Endogenous CD163 on primary human monocyte-derived cells; also called huCD163; CD163^Hi cells
# Description: The macrophage detachment solution was replaced with cold PBS−/− (PBS without calcium and magnesium; Hyclone No. SH30028.02) containing 0.2 mM EDTA and 0.1% HSA. The cells were spun down at 650×g for 5 min and then resuspended in 0.5 mL cold Block solution (FACS buffer+10% NGS+10 μg of human IgG Fc fragment protein (Abcam No. ab90285)) per million cells. The cells were counted and an average of 1×10⁶ per mL was used for further calculations. The cells were incubated at RT for 15 min (to increase FcR binding), followed by a 30 min incubation on ice for full blocking. An aliquot of unstained cells was set aside for compensation controls. e780 viability dye (ThermoFisher eBioscience No. 65-0865-18) was added to the remainder at a final dilution of 1:1000. Cells were aliquoted into 96-well plates (40 μL per well), and 10 μL of antibody solution was added to each well. Antibodies were prepared with a starting concentration of 100 μg/mL in FACS buffer and serially diluted in FACS buffer. After addition of antibodies, each set of cells was tested with an antibody panel (AB101 in FcNull framework conjugated to AF647 and commercial anti-CD163 conjugated to BV421 [BioLegend No. 333612]) and an isotype panel (ISO2 in FcNull framework conjugated to AF647 and commercial mIgG1 conjugated to BV421). […] Cells were then analyzed by flow cytometry on a BD Canto II machine.
# [2] = molecular target: T2, His-tagged recombinant human CD163 (R&D Systems, No. 1607-CD-050) (human, UniProt Q86VB7 46-1050); experiment: ELISA, plate coated with 5 ug/mL His-tagged recombinant human CD163, HRP anti-human IgG F(ab')2, A450
# T2 construct: Bought protein; also called huCD163; not shown: His tag
# T2 sequence (Q86VB7 46-1050 limits assumed): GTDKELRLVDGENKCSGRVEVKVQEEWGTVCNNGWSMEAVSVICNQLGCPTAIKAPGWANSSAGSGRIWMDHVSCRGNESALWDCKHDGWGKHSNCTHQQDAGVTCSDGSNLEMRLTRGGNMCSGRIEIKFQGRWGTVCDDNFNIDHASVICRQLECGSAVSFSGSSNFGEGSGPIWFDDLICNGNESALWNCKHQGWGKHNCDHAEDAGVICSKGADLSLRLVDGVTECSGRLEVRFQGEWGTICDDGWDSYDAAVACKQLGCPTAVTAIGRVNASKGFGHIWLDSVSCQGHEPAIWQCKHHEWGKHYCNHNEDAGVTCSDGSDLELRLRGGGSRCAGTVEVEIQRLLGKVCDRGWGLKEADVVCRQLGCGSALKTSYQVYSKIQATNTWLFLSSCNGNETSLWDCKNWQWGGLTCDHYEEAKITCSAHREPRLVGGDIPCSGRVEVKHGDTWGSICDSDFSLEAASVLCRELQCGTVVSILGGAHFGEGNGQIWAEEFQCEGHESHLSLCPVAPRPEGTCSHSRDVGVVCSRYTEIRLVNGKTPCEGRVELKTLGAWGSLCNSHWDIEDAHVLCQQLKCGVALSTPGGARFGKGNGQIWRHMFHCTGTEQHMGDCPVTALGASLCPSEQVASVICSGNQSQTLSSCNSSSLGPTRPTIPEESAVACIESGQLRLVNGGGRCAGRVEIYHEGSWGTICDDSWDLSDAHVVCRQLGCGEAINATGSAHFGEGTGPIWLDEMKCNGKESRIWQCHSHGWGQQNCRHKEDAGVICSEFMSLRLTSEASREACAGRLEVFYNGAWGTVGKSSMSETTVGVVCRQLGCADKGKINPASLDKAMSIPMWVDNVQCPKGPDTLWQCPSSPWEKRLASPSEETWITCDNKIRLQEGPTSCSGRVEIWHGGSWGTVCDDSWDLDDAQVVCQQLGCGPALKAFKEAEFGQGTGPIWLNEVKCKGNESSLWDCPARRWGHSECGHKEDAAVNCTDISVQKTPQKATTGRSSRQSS
# Description: AB101 binding to His-tagged recombinant human CD163 (R&D Systems, No. 1607-CD-050) and recombinant murine CD163 (R&D Systems, No. 7435-CD-050) proteins was determined using ELISA. Recombinant proteins were diluted in PBS to 5 μg/mL and added to 384-well High binding ELISA plates (Greiner Bio-One, No. 781061) at 25 μL per well and incubated at 4° C. overnight. The plates were washed three times with PBS, using the BioTek ELx405 Select microplate washer (wash program ELISA_384_PBS_3×_wash) and then blocked with 90 μL/well of blocking buffer (2% nonfat, dry milk/PBS+0.05% Tween 20) for 1 hr at RT.
# After blocking, 25 μL per well of primary antibodies were added to the plates and incubated for 1 hr at room temp. The test antibody was AB101; the control anti-huCD163 antibody was a commercially available antibody in murine IgG1 framework (R&D Systems, #MAB1607); the isotype controls were a proprietary mAb, in human IgG1, human FcNull, and murine IgG1 frameworks, with known specificity. After primary antibody binding, plates were washed three times with PBS using the EL405× (wash program ELISA_384_PBS_3×_wash). […] After development, the reaction was stopped by adding 25 μL per well of 0.3 M HCl and plates were read using the SpectraMax M5e instrument at 450 nm.
# T1 sequence (Q86VB7 other isoform, or with tags, fused parts or gaps limits assumed): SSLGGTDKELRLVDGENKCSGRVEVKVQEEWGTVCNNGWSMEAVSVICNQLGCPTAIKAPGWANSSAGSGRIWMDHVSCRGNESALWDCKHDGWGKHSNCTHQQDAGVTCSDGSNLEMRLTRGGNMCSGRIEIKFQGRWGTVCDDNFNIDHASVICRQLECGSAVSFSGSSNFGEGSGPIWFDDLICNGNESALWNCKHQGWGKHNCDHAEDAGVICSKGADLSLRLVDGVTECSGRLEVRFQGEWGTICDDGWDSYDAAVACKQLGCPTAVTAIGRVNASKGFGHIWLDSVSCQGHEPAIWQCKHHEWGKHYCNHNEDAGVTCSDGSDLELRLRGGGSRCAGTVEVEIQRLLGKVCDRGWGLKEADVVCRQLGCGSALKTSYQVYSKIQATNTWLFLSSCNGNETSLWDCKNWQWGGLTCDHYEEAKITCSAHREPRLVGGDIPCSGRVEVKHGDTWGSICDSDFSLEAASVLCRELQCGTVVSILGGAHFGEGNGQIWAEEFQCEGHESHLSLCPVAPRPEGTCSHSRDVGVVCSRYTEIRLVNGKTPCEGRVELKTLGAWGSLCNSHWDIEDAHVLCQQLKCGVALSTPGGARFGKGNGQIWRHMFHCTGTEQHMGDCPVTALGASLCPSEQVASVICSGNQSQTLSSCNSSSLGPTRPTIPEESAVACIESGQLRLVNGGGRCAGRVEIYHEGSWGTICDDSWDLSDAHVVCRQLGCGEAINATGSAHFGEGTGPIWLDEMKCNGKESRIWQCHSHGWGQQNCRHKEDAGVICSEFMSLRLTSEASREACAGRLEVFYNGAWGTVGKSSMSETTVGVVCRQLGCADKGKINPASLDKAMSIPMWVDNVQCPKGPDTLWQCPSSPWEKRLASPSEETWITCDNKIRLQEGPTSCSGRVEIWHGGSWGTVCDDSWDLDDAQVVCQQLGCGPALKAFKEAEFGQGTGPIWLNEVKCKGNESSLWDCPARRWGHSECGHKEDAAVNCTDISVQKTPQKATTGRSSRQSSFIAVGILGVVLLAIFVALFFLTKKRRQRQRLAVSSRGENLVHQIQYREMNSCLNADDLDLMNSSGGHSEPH
binder,measurement,setting,value
"AB102 (antibody, human IgG1, kappa, Biotinylated for the PFA immunoprecipitation and AF647 conjugated for flow cytometry; also called AB101 FcNull antibody; AB101 in FcNull framework; copies: 2 + 2) light: not shown heavy: EVQLVESGGGVVQPGRSLRLSCAASGFTFSSYAMHWVRQAPGKGLEWVAVISYDGSNKYYADSVKGRFTISRDNSKNTLYLQMNSLRAEDTAVYYCARENVRPYYDFWSGYYSEYYYYGMDVWGQGTTVTVSSASTKGPSVFPLAPSSKSTSGGTAALGCLVKDYFPEPVTVSWNSGALTSGVHTFPAVLQSSGLYSLSSVVTVPSSSLGTQTYICNVNHKPSNTKVDKRVEPKSCDKTHTCPPCPAPEFEGGPSVFLFPPKPKDTLMISRTPEVTCVVVDVSHEDPEVKFNWYVDGVEVHNAKTKPREEQYNSTYRVVSVLTVLHQDWLNGKEYKCKVSNKALPASIEKTISKAKGQPREPQVYTLPPSREEMTKNQVSLTCLVKGFYPSDIAVEWESNGQPENNYKTTPPVLDSDGSFFLYSKLTVDKSRWQQGNVFSCSVMHEALHNHYTQKSLSLSPGK",EC50 (read off the curve),[1],~10 nM
same,EC50 (read off the curve),[2],~1 nM
